Laboratory results from article PMC7865074, “Role of PDZ-binding motif from West Nile virus NS5 protein on viral replication” (Scientific Reports, 2021).
Ends that are not written are not given here.

B1: Partitioning defective 3 homolog, PDZ domain 3 (holdup construct) (domain or fragment, human, UniProt Q8TEW0 590-677, looked up)
chain: EVPLNDSGSAGLGVSVKGNRSKENHADLGIFVKSIINGGAASKDGRLRVNDQLIAVNGESLLGKTNQDAMETLRRSMSTEGNKRGMIQ
notes: also called PARD3_3; source: E. coli, PDZome V.2 library, high-throughput expression
B2: Zona Occludens 3; Tight Junction Protein 3, PDZ domain 2 (holdup construct) (domain or fragment, human, UniProt O95049 195-272, looked up)
chain: SVLVKRRDSEEFGVKLGSQIFIKHITDSGLAARHRGLQEGDLILQINGVSSQNLSLNDTRRLIEKSEGKLSLLVLRDR
notes: also called TJP3_2; source: E. coli, PDZome V.2 library, high-throughput expression
B3: Rho GTPase-activating protein 21, PDZ domain (holdup construct) (domain or fragment, human, UniProt Q5T5U3 50-159, looked up)
chain: TVTLKRTSQGFGFTLRHFIVYPPESAIQFSYKDEENGNRGGKQRNRLEPMDTIFVKQVKEGGPAFEAGLCTGDRIIKVNGESVIGKTYSQVIALIQNSDTTLELSVMPKD
notes: also called ARHGAP21; source: E. coli, PDZome V.2 library, high-throughput expression
B4: SH3 and multiple ankyrin repeat domains protein 1, PDZ domain (holdup construct) (domain or fragment, human, UniProt Q9Y566 663-757, looked up)
chain: TVLLQKKDSEGFGFVLRGAKAQTPIEEFTPTPAFPALQYLESVDEGGVAWRAGLRMGDFLIEVNGQNVVKVGHRQVVNMIRQGGNTLMVKVVMVT
notes: also called SHANK1; source: E. coli, PDZome V.2 library, high-throughput expression
B5: PDZ domain-containing protein GIPC3, PDZ domain (holdup construct) (domain or fragment, human, UniProt Q8TF64 112-192, looked up)
chain: EVEVTKTEDALGLTITDNGAGYAFIKRIKEGSIINRIEAVCVGDSIEAINDHSIVGCRHYEVAKMLRELPKSQPFTLRLVQ
notes: source: E. coli, PDZome V.2 library, high-throughput expression
B6: Na(+)/H(+) exchange regulatory cofactor NHE-RF2, PDZ domain 2 (holdup construct) (domain or fragment, human, UniProt Q15599 150-230, looked up)
chain: RLCHLRKGPQGYGFNLHSDKSRPGQYIRSVDPGSPAARSGLRAQDRLIEVNGQNVEGLRHAEVVASIKAREDEARLLVVDP
notes: also called NHERF2_2; source: E. coli, PDZome V.2 library, high-throughput expression
B7: Regulating synaptic membrane exocytosis protein 2, PDZ domain (holdup construct) (domain or fragment, human, UniProt Q9UQ26 668-754, looked up)
chain: DGSVPRDSGAMLGLKVVGGKMTESGRLCAFITKVKKGSLADTVGHLRPGDEVLEWNGRLLQGATFEEVYNIILESKPEPQVELVVSR
notes: also called RIMS2; source: E. coli, PDZome V.2 library, high-throughput expression
B8: Na(+)/H(+) exchange regulatory cofactor NHE-RF2, PDZ domain 1 (holdup construct) (domain or fragment, human, UniProt Q15599 11-90, looked up)
chain: LCRLVRGEQGYGFHLHGEKGRRGQFIRRVEPGSPAEAAALRAGDRLVEVNGVNVEGETHHQVVQRIKAVEGQTRLLVVDQ
notes: also called NHERF2_1; source: E. coli, PDZome V.2 library, high-throughput expression
B9: Microtubule-associated serine/threonine-protein kinase 1, PDZ domain (holdup construct) (domain or fragment, human, UniProt Q9Y2H9 967-1055, looked up)
chain: PITIQRSGKKYGFTLRAIRVYMGDTDVYSVHHIVWHVEEGGPAQEAGLCAGDLITHVNGEPVHGMVHPEVVELILKSGNKVAVTTTPFE
notes: also called MAST1; source: E. coli, PDZome V.2 library, high-throughput expression
B10: Protein piccolo, PDZ domain (holdup construct) (domain or fragment, human, UniProt Q9Y6V0 4496-4590, looked up)
chain: RIKITRDSKDHTVSGNGLGIRIVGGKEIPGHSGEIGAYIAKILPGGSAEQTGKLMEGMQVLEWNGIPLTSKTYEEVQSIISQQSGEAEICVRLDL
notes: also called PCLO; source: E. coli, PDZome V.2 library, high-throughput expression
B11: SH3 and multiple ankyrin repeat domains protein 3, PDZ domain (holdup construct) (domain or fragment, human, UniProt Q9BYB0 646-740, looked up)
chain: VAVLQKRDHEGFGFVLRGAKAETPIEEFTPTPAFPALQYLESVDVEGVAWRAGLRTGDFLIEVNGVNVVKVGHKQVVALIRQGGNRLVMKVVSVT
notes: also called SHANK3; source: E. coli, PDZome V.2 library, high-throughput expression
B12: Microtubule-associated serine/threonine-protein kinase 2, PDZ domain (holdup construct) (domain or fragment, human, UniProt Q6P0Q8 1104-1192, looked up)
chain: PIIIHRAGKKYGFTLRAIRVYMGDSDVYTVHHMVWHVEDGGPASEAGLRQGDLITHVNGEPVHGLVHTEVVELILKSGNKVAISTTPLE
notes: also called MAST2; source: E. coli, PDZome V.2 library, high-throughput expression
B13: MAGUK p55 subfamily member 5, PDZ domain (holdup construct) (domain or fragment, human, UniProt Q8N3R9 256-336, looked up)
chain: IVRIEKARDIPLGATVRNEMDSVIISRIVKGGAAEKSGLLHEGDEVLEINGIEIRGKDVNEVFDLLSDMHGTLTFVLIPSQ
notes: also called MPP5; source: E. coli, PDZome V.2 library, high-throughput expression
B14: Disks large homolog 1, PDZ domain 2 (holdup construct) (domain or fragment, human, UniProt Q12959 319-405, looked up)
chain: EIKLIKGPKGLGFSIAGGVGNQHIPGDNSIYVTKIIEGGAAHKDGKLQIGDKLLAVNNVCLEEVTHEEAVTALKNTSDFVYLKVAKP
notes: also called DLG1_2; source: E. coli, PDZome V.2 library, high-throughput expression
B15: 26S proteasome non-ATPase regulatory subunit 9, PDZ domain (holdup construct) (domain or fragment, human, UniProt O00233 108-195, looked up)
chain: QARDMAEAHKEAMSRKLGQSESQGPPRAFAKVNSISPGSPASIAGLQVDDEIVEFGSVNTQNFQSLHNIGSVVQHSEGKPLNVTVIRR
notes: also called PSMD9; source: E. coli, PDZome V.2 library, high-throughput expression
B16: Connector enhancer of kinase suppressor of ras 3, PDZ domain (holdup construct) (domain or fragment, human, UniProt Q6P9H4 211-293, looked up)
chain: EVHLPNIKPGEGLGMYIKSTYDGLHVITGTTENSPADRSQKIHAGDEVIQVNQQTVVGWQLKNLVKKLRENPTGVVLLLKKRP
notes: also called CNKSR3; source: E. coli, PDZome V.2 library, high-throughput expression
B17: Membrane-associated guanylate kinase, WW and PDZ domain-containing protein 3, PDZ domain 2 (holdup construct) (domain or fragment, human, UniProt Q5TCQ9 410-492, looked up)
chain: RASLKKSTMGFGFTIIGGDRPDEFLQVKNVLKDGPAAQDGKIAPGDVIVDINGNCVLGHTHADVVQMFQLVPVNQYVNLTLCR
notes: also called MAGI3 _2; source: E. coli, PDZome V.2 library, high-throughput expression

Biological target: T1, biotinylated WNV NS5 PBM peptide (West Nile virus, also: biotinyl group, end not given here)
T1 construct: bait of the holdup assay; also called 13-mer peptide; source: synthetic peptide (solid phase, Fmoc; Proteogenix)
T1 peptide: RYEDTTLVEDTVL
Assay: holdup assay (automated high-throughput chromatography); biotinylated NS5 PBM peptide as bait against 259 human PDZ domains expressed in E. coli; read-out binding intensity (BI), mean of replicates; BI threshold 0.2 for a significant interaction

Row | Binder | BI (holdup binding intensity)
1 | B1 | 0.29
2 | B2 | 0.23
3 | B3 | 0.3
4 | B4 | 0.39
5 | B5 | < 0.15
6 | B6 | 0.74
7 | B7 | < 0.15
8 | B8 | 0.21
9 | B9 | 0.52
10 | B10 | < 0.15
11 | B11 | 0.39
12 | B12 | 0.72
13 | B13 | < 0.15
14 | B14 | 0.22
15 | B15 | < 0.15
16 | B16 | < 0.15
17 | B17 | 0.61
